Patent publication US6699834B1, “Method for treating cancer” (University of Maryland Biotechnology Institute, priority 1997, dated 2004)

B1: rβhCG: recombinant β subunit expressed in mouse cells (Sigma) (protein, UniProt P0DN86 21-165, looked up)
Choriogonadotropin subunit …: SKEPLRPRCRPINATLAVEKEGCPVCITVNTTICAGYCPTMTRVLQGVLPALPQVVCNYRDVRFESIRLPGCPRGVNPVVSYAVALSCQCALCRRSTTDCGGPKDHPLTCDDPRFQDSSSSKAPPPSLPSPSRLPGPSDTPILPQ
B2: βhCG: purified native β subunit of hCG (Sigma) (protein, UniProt P0DN86 21-165, looked up)
Choriogonadotropin subunit …: B1 Choriogonadotropin subunit …
modifications: native beta subunit only

Assays:
KS Y-1 and KS-SLK cells = experiment: Kaposi's Sarcoma clonogenic assay in cultured cells; assay type: cell-based, human; conditions: for KS in vitro: inhibition of Kaposi's Sarcoma cell growth in vitro in cultured cells
Procedure: Briefly, the KS Y-1 cells were obtained from mononuclear cells isolated from pleural effusion of an AIDS patient with KS in the lungs. After the depletion of T lymphocytes, monocytes/macrophages and fibroblasts using monoclonal antibodies against CD2, CD3, CD4, CD8, CD10 and CD14 membrane antigens and baby rabbit complement, the cells were cultured in the absence of exogenous growth factors to select for transformed cells. […] Clonogenic assays were performed by seeding the KS Y-1 or KS-SLK cells in methylcellulose (0.8%, v/v), incubating the cells for 10 days in the presence or absence of the hCC, β-hCG or β-hCG peptide preparations and then counting the number of well-formed colonies of triplicate wells formed after seeding with 5×10^4 cells.
To assay for activity against Kaposi's sarcoma cell growth in vitro, the clonogenic assay described herein was used with the KS Y-1 and KS-SLK cultured Kaposi's Sarcoma cell lines,.

[1] = tested on: HIV RNA and protein expression; experiment: HIV RNA and protein expression in HIV-1 transgenic mice; assay type: in vivo; conditions: inhibition of HIV RNA and protein expression in HIV-1 transgenic mice
Source text: (§1) The HIV-1 transgenic mice used for this study contain 7.4 kb of foreign DNA, including 5.1 kb of the HIV-1 proviral genome deleted in the gag and pol genes and 2.3 kb of vector (Dickie et al., 1991, Virology 185:109-119). […] In addition, these mice develop severe hyperkeratotic skin lesions with marked expression of gp 120 and nef genes (Kopp et al., 1993, AIDS Res. Hum. Retroviruses 9:267-275; Vasli et al., 1994, AIDS Res. Hum. Retroviruses 10:1241-1250).
Heterozygous transgenic mothers were treated with the hCG preparation subcutaneously twice weekly. Pups received hCG via the mother's milk.
Gene expression was assayed in total RNA extracted from the skin of Tg26 mice with RNAzol. One microgram of RNA was reverse transcribed into cDNA using random hexamer primers and […] reverse transcriptase (Life Technologies, MD) in a final volume of 30 μl. One tenth of the cDNA reactions were used for PCR amplification of various HIV gene sequences (env, tat, rev, nef and vif). In addition, glyceraldehyde 3-phosphate dehydrogenase (GAPHD) mRNA was amplified for each sample for normalization. […] Detection was performed by chemiluminescence (Amersham) and relative mRNA levels determined by densitometry after normalization with GAPDH mRNA levels. […]

[2] = tested on: hematopoietic progenitor cells; experiment: Hematopoietic progenitor clonogenic assays (CFU-GEMM, BFU-e, CFU-GM); assay type: cell-based, human; conditions: for Pro-hematopoiesis in vitro Enhancement: relative increase of hematopoietic colony cell number, hCG preparations 200 IU/ml, subunits and peptides 100 μg/ml
Procedure: The effect of hCG preparations and peptides was assayed on hematopoietic progenitor cells in vitro: Hematopoietic progenitor cells (2×10^5 cell/ml) were isolated from normal bone marrow and cord blood and seeded in methylcellulose. […] The hCG preparations were administered at 200 IU/ml and the β- and α-subunits and peptides were administered at 100 μg/ml. The native commercial preparation of hCG (APL™, Wyeth Ayerst) was pre-tested for anti-HIV and anti-KS activities. Aggregates containing more than 50 cells after 10 days of culture were counted as colonies.

[3] = tested on: Kaposi's Sarcoma induced in mice; experiment: Kaposi's Sarcoma tumors induced in mice by KS Y-1 cells; assay type: in vivo; conditions: inhibition of Kaposi's Sarcoma induced in mice
Procedure: The effects of the peptides on KS tumor cells were also evaluated in vivo in the KS mouse model. To induce KS tumors in the mice, 1×10^6/ml KS Y-1 cells in 50 μl PBS or saline were injected subcutaneously into immunodeficient mice (beige-XID-BNX mice). […] Methods for detection of apoptosis (from tissue biopsies) were used, as described in Lunardi-Iskandar et al.(1995, Nature 375:64-68). Briefly, the samples were stained in situ for the presence of cells with DNA fragmentation. Tissue slides from formalin-fixed tumors were treated with terminal deoxynucleotide transferase for extension of DNA ends (hydroxyl 3′) and incorporation of digoxigenin-11-dUTP according to the manufacturer's instructions (Oncor, Gaithersburg, Md.). Anti-digoxigenin antibody conjugated with the enzyme peroxidase allowed detection of apoptotic cells, which stain brown, whereas viable cells stain blue.
Certain fractions were tested for activity in reducing Kaposi's Sarcoma lesions in the Kaposi's Sarcoma mouse model as described herein. In this assay, starting one week after injection of the KS Y-1 cells to induce Kaposi's sarcoma formation, the mice were injected subcutaneously with 100 IU hCG. […] After one week of the week of treatment with the hCG fractions, the KS lesions were examined for cell apoptosis and regression as described herein. […]

HIV-1 transgenic mice = experiment: Survival, growth and weight of HIV-1 transgenic mouse pups; assay type: in vivo; conditions: administered first 5 days after birth through mothers milk
Procedure: as §1
Finally, certain fractions were tested for their ability to increase survival, promote weight gain and reduce HIV-1 gene expression in HIV-1 transgenic mice as described herein.
HIV-I transgenic pups administered hCG and hCG-related preparations for the first 5 days after birth through the mothers milk were monitored for survival at 10 days after birth.

HIV-1 = conditions: for HIV in vitro Inhibition: inhibition of HIV-1 replication in vitro (HIV-1 strains and HIV-1 primary isolates)
Source text: To prepare HIV infected cells for the in vitro assay of hCG preparations and β-hCG peptides and derivatives, primary PBMCs, macrophages, and CD4^+ T cells isolated from peripheral blood and the H9 human T cell line, were acutely or chronically infected with 8 different HIV-1 strains: 4 cell line adapted viruses, namely the macrophage tropic Ba-L strain (Gartner et al., 1986, Science 233:215-219) and the CD4^+ T cell tropic MN, RF, and IIIB strains (10^5 TCID50/ml) (Popovic et al., 1984, Science […]; Gallo et al.; 1984, Science 224:500-503); 2 isolates, Ju1083 and G3, from Nigerian AIDS patients passed once in a CD4^+ T cell line (Sub-T1); and 2 primary (“clinical”) isolates from AIDS patients from Trinidad which were never passed in any cell line and were used at a titer of 7.5×10^4TCID50/ml. In all experiments; HIV1 (10^5 TCID50/ml) was added to the cells(10^6 cells/ml) for a 2 hour incubation after which the virus infected cells were washed with 10 ml phosphate buffered saline (PBS) three times to eliminate extra cellular virus. The test inhibitor, i.e. the hCG or β-hCG peptide preparation was then added and the cells were incubated with the test inhibiter for 9 to 10 days with serial sampling. Cultures were assayed for p24 antigen on days 3 to 10.
Peptides of the α- and β-subunits (0.05 to 50 nmoles/ml), native α chain preparation, and various crude preparations of the native hCG heterodimer (0.01 to 1,000 IU) and the native β-hCG subunit (100 to 1,000 μg) were tested for effects on HIV-1 replication in acutely infected cells-by measuring change in viral antigen levels in response to the above noted preparations (FIGS. 4A-D and Table 3).
The fractions were then tested for anti-HIV, anti-KS and pro-hematopoietic activities in vitro. To assay for inhibition of HIV-1 replication in vitro, the HIV-1 […] viral strain was used to infect PBMCs and PM-1 cells (derived from the HUT-78 T-cell lymphoma cell line) at 10^3 TCID50/ml as described in detail herein.

Molecule | KS in vitro (KS Y-1 and KS-SLK cells) | inhibition of HIV RNA and protein expression [1] | Pro-hematopoiesis in vitro Enhancement [2] | KS in vivo [3] | survival at 10 days after birth (HIV-1 transgenic mice) | inhibition of HIV-1 infection/replication in vitro (in words) (HIV-1) | HIV in vitro Inhibition (HIV-1) | inhibition of KS cell growth in clonogenic assays (in words) (KS Y-1 and KS-SLK cells; KS Y-1 and KS SLK) | promotion of hematopoiesis (in words) ([2]; listed as native β-hCG) | promotion of hematopoiesis (in words) ([2]; listed as partially purified native β-chain)
B1 | − (“−” represents less than 10% effect) | − (“−” represents less than 10% effect) | − (“−” represents less than 10% effect) | − (“−” represents less than 10% effect) | failed to promote survival | not to be active | − (“−” represents less than 10% effect) | – | – | –
B2 | ++ (“++” represents greater than 40% effect) | ++ (“++” represents greater than 40% effect) | ++ (“++” represents greater than 40% effect) | ++ (“++” represents greater than 40% effect) | promote survival | active | ++ (“++” represents greater than 40% effect) | moderately well | pro-hematopoietic activity | directly promoted
